Broadly, the stoichiometry N is the number of molecules, sites or subunits per partner or assembly.

The text below walks through data of paper PMC4556315, “Structure of the JmjC domain-containing protein NO66 complexed with ribosomal protein Rpl8” (Acta Crystallographica Section D: Biological Crystallography, 2015).

Data set [1] addresses T1, C-terminal fragment of wild-type human NO66 (NO66^176–C) (human, UniProt Q9H6W3 176-641).
T1 construct: Cloned in pET-28a(+); Tetramer in the crystal; also called Nucleolar protein 66; wild-type NO66; source: E. coli Rosetta 2 (DE3), purified (Ni-NTA, tag removed by TEV protease, Superdex 200); not shown: His-SUMO, N-terminal, cleaved
Description: pull-down; GST-Rpl8 fragments immobilised on GST beads from E. coli lysate and washed, incubated with purified NO66^176–C at 277 K for 1 h; buffer B (50 mM HEPES pH 7.5, 300 mM NaCl, 0.1% Triton X-100); SDS-PAGE. The conditions noted are these: both partners purified.

Data set [2] concerns the molecule itself. Description: SEC; Superdex 200 10/300, 20 mM Tris-HCl pH 7.5, 200 mM NaCl; molecular weight estimated from the elution volume.
The target of data set [3] is T1, C-terminal fragment of wild-type human …. Description: crystal structure; NO66^176–C with Ni2+, NOG and Rpl8^204–224 peptide (protein:NOG:Ni2+:peptide 1:4:10:15); sitting drop, 295 K, 0.1 M imidazole pH 6.5, 0.5 M sodium acetate; 2.2 Å. The conditions noted are these: both partners purified.

B1: GST-Rpl8 fragment 193–224 (domain or fragment)
chain: not shown
notes: Cloned in pGEX-6P-1
Consider B1, for which, in data set [1], the binding result is “binds”.

B2: NO66^176–C mutant M3 (F450A/R452A/P455A) (enzyme, human, UniProt Q9H6W3 176-641, looked up)
chain: GGEPAWDSPLRRVLAELNRIPSSRRRAARLFEWLIAPMPPDHFYRRLWEREAVLVRRQDHTYYQGLFSTADLDSMLRNEEVQFGQHLDAARYINGRRETLNPPGRALPAAAWSLYQAGCSLRLLCPQAFSTTVWQFLAVLQEQFGSMAGSNVYLTPPNSQGFAPHYDDIEAFVLQLEGRKLWRVYRPRVPTEELALTSSPNFSQDDLGEPVLQTVLEPGDLLYFPRGFIHQAECQDGVHSLHLTLSTYQRNTWGDFLEAILPLAVQAAMEENVEARAGLARDFMDYMGAQHSDSKDPRRTAFMEKVRVLVARLGHFAPVDAVADQRAKDFIHDSLPPVLTDRERALSVYGLPIRWEAGEPVNVGAQLTTETEVHMLQDGIARLVGEGGHLFLYYTVENSRVYHLEEPKCLEIYPQQADAMELLLGSYPEFVRVGDLPCDSVEDQLSLATTLYDKGLLLTKMPLALN
notes: source: E. coli Rosetta 2 (DE3), purified (Ni-NTA, tag removed by TEV protease, Superdex 200); not shown: His-SUMO, N-terminal, cleaved
Regarding B2, the “stoichiometry N” value in data set [2] is 2.

B3: Rpl8^204–224 peptide (human ribosomal protein L8) (peptide, UniProt P62917 204-224, looked up)
peptide: MNPVEHPFGGGNHQHIGKPST
notes: Only residues 212–222 are visible in the structure; also called Rpl8 peptide; source: synthetic peptide
For the molecule B3, in data set [3], the binding result is listed as “binds”.
